From patent US20170369592A1, “NOVEL ANTI-FIBROBLAST ACTIVATION PROTEIN (FAP) ANTIBODIES AND USES DERIVED THEREOF” (Mabimmune Diagnostics AG, priority 2015, published 2017)

Target: T1, recombinant human FAP (rhFAP) (Homo sapiens, UniProt Q12884)
T1 construct: purchased Sino Biologicals 10464-H07H
T1 sequence (Q12884 26-760 limits assumed): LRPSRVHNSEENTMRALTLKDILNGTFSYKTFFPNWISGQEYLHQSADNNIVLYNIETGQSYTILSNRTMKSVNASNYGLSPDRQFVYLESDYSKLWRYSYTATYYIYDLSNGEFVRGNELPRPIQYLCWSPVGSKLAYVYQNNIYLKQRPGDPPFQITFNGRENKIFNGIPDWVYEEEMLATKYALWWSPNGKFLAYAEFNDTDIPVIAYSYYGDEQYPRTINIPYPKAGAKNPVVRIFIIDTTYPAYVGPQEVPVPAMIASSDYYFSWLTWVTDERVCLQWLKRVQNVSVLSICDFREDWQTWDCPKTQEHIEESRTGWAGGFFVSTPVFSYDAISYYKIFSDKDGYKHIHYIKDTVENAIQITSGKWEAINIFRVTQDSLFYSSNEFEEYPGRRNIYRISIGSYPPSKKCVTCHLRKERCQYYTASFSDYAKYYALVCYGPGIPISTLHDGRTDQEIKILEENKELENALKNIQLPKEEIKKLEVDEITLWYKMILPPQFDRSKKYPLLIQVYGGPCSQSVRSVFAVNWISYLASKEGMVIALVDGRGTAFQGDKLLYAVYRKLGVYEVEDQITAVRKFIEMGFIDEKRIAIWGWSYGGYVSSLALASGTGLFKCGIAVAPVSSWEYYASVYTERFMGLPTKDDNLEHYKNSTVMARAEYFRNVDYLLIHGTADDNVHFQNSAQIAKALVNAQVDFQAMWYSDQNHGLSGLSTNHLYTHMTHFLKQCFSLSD
Test: Affinity (EC50) sandwich ELISA on SB9 oligopeptidase family
Assay type: binding
Details: HRP-labelled antibody 0.004-400 nM
Procedure: To determine the binding efficiency and inhibitory ability of NI-206.82C2 against other members of the SB9 oligopeptidase family that have sequence similarity to FAP, indirect ELISA and inhibition assays were performed on active enzyme targets. Active recombinant human enzymes evaluated in this assay include: Fibroblast Activation Protein (FAP; Sino Biologicals, 10464-H07H), Dipeptidyl Peptidase IV (DPPIV, BPS Bioscience 80040), Dipeptidyl Peptidase 8 (DPP8, BPS Bioscience 80080), Dipeptidyl Peptidase 9 (DPP9, BPS Bioscience […]), and Prolyl Oligopeptidase/Prolyl Endopeptidase (POP/PREP, BPS Bioscience 80105). Each recombinant peptidase was expressed with a purification tag, and attached to the 96 well ELISA plate using either a mouse anti-Histidine antibody (CloneTech), or a mouse anti-Glutathione S-transferase (GST, Sino Biologicals, 111213-MM02) tag antibody. Each enzyme was validated to bind and remained active on the ELISA plate using enzyme specific fluorogenic substrates. H-Gly-Pro-AMC (ATT Bioquest, 13450) was used to validate the presence and activity of DPP4, DPP9, and DPP8. […] Following a washing step, bound antibody was detected using 3,3′,5,5′-Tetramethylbenzidine (TMB) substrate. The reaction was stopped after 10 minutes by adding 2N H2SO4 and the resulting change in optical density was quantified using an ELISA plate reader at […] absorbance (FIG. 7 B).

binding to rhFAP: selectively binds
B1: NI-206.82C2: recombinant human memory B cell-derived monoclonal anti-FAP IgG1 antibody, variable regions in FIG. 1A, FAP inhibitory (antibody, V domains shown)
VH: QVQLQQSGPGLVKPSQTLSLTCAISGDSVSSNSVTWNWIRQSPSRGLEWLGRTYYRSKWYNDYAVSVKGRITINPDTSKNQFYLQLKSVTPEDAAVYYCARDSSILYGDYWGQGTLVTVSS
VL: QAVLTQPSSLSASPGASASLTCTLPSGINVGTYRIFWFQQKPGSPPQYLLSYKSDSDNHQGSGVPSRFSGSKDASANAGILLISGLQSEDEADYYCMIWHSSAWVFGGGTKLTVL
